Legend:
[1] = target: Recombinant His-tagged AUREO1c protein (Phaeodactylum tricornutum aureochrome 1c) (Phaeodactylum tricornutum); assay: native MS; UHPLC-native MS (Waters BEH SEC column, 100 mM ammonium acetate, room temperature); 5 uM protein in PBS incubated in the dark for 60 min, then cross-linked with 5 uM BS3 and quenched with Tris
[2] = target: Recombinant His-tagged AUREO1c protein (Phaeodactylum tricornutum aureochrome 1c) (Phaeodactylum tricornutum); assay: native MS; UHPLC-native MS (Waters BEH SEC column, 100 mM ammonium acetate, room temperature); 5 uM protein in PBS incubated under blue light (200 umol photons m^-2 s^-1) for 60 min, then cross-linked with 5 uM BS3 and quenched with Tris

stoichiometry N [1]: 2
stoichiometry N [2]: 2
Substance: Recombinant His-tagged AUREO1c protein (Phaeodactylum tricornutum aureochrome 1c) (natural protein)
